From US20190270793A1

Target: tau seeds in spinal cord homogenates of P301S transgenic mice (aggregated transgenic human tau) (human), P10636
Assay: cell-based or functional assay

tau seeds in spinal cord homogenates of P301S transgenic mice (aggregated transgenic human tau) (human), P10636, sequence (P10636 other isoform, or with tags, fused parts or gaps P301S P301S): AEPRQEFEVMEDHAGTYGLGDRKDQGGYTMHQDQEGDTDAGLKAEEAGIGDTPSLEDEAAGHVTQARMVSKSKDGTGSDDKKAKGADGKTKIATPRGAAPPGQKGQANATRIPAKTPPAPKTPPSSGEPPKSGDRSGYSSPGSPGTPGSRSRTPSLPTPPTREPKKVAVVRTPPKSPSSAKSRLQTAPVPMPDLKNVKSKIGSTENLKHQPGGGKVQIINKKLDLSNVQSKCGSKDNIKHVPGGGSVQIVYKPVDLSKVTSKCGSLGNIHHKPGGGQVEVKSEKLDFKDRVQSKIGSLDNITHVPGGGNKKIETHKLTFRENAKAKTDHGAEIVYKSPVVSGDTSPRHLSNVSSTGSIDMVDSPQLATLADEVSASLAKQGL

B1: PT82 mAb, recombinantly expressed (mouse IgG2a/kappa) (antibody, V domains shown)
VH: EVKLEESGGGLVQPGGSMKLSCVASGFTFSNYWMNWIRQSPEKGLEWVAQIRLQSDNYATRYAESVKGRFTISRDESKTSVYLQMNNLRTEDTGIYYCTGGTTYWGQGTLVTVSA
VL: DIVMTQSQKFMSTSVGDRVSITCKASQNVGTAVAWYQQKPGQSPKLLIYSASIRYTGVPDRFTGSGSGTDFTLTINYMQSEDLADYFCQQFSSYPYTFGGGTKLEIK
**Q.** Which Tau aggregate induction (K18 aggregate formation, FRET-positive HEK cells counted by FACS) does the source give for B1 here?
**A.** The Tau aggregate induction (K18 aggregate formation, FRET-positive HEK cells counted by FACS) was 3 nM.
